B1: HTRA1 promoter 12-mer, methylated (dsDNA)
DNA 1: CTCAGCGAGAGA
DNA 2: TCTCTCGCTGAG
modifications: 5-methyl-dC at position 6 of the reverse strand (TCTCT-5mC-GCTGAG); forward-strand methylation not visible in the material (line truncated), probably 5mC at position 6
B2: HTRA1 promoter 12-mer, unmethylated (dsDNA)
DNA 1: CTCAGCGAGAGA
DNA 2: TCTCTCGCTGAG

What was measured:
[1] = target: T1, MBD2b (MBD2 lacking the N-terminal 149 residues) (UniProt Q9UBB5 150-411); experiment: EMSA; 70 pmol each, equimolar; 5 mM Mg2+; 1:1 stoichiometry; EMSA: 50 mM Tris, 5 mM MgCl2, 10 mM DTT, pH 7.5, 5 min, RT, 10 ul, 12% gel, ethidium bromide; protease protection: 50 mM Tris, 5 mM MgCl2, pH 7.5, 10 min RT with DNA, then trypsin 20 min 37 C; conditions: protein: recombinant; tags: 6His; label: none (ethidium bromide stain); blunt
T1 sequence (Q9UBB5 150-411): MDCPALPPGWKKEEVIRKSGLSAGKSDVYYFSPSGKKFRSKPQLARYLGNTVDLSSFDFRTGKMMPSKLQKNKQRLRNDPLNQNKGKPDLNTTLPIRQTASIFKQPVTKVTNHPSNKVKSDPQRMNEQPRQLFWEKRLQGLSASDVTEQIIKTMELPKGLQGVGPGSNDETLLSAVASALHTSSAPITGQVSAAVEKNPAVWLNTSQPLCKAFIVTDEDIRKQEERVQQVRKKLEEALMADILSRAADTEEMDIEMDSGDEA

[2] = target: T1, MBD2b (MBD2 lacking the N-terminal 149 …); experiment: EMSA; 70 pmol each, equimolar; 5 mM Mg2+; EMSA: 50 mM Tris, 5 mM MgCl2, 10 mM DTT, pH 7.5, 5 min, RT, 10 ul, 12% gel, ethidium bromide; protease protection: 50 mM Tris, 5 mM MgCl2, pH 7.5, 10 min RT with DNA, then trypsin 20 min 37 C; conditions: protein: recombinant; tags: 6His; label: none (ethidium bromide stain); blunt

Row | Binder | binding result [1] | binding result [2]
1 | B1 | binds | –
2 | B2 | – | no binding

From publication PMC4936022, “Epigenetic silencing of serine protease HTRA1 drives polyploidy”
